The results in this text go back to paper PMC12661447, “Cyanophycinase is required for heterotrophy in cyanobacteria” (The Journal of Biological Chemistry, 2025).

This assay concerns the target T1, cyanophycinase (CphB) (Synechocystis sp. PCC 6803 (endogenous …, UniProt P73832 1-271)).
T1 sequence (looked up): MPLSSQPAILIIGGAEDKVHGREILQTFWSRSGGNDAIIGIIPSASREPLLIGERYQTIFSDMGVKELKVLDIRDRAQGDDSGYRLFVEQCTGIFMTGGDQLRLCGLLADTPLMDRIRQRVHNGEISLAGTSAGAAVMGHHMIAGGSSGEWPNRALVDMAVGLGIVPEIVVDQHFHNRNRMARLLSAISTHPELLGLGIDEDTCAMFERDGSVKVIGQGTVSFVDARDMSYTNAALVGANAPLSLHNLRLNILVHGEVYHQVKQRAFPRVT
The assay can be described thus: cell-based or functional assay.

B1: FLAG-tagged variant of ArgD (acetylornithine aminotransferase) (enzyme, Synechocystis sp. PCC 6803, UniProt P73133 1-429, looked up)
chain: MTYSPVVESVEAQAFAVTDLSPAAEFKTADFDTYVMNTYGRFPIAIARGQGSTLWDTEGKSYLDFVAGIATCTLGHAHPALVRAVSDQIQKLHHVSNLYYIPEQGELAKWIVEHSCADRVFFCNSGAEANEAAIKLVRKYAHTVLDFLEQPVILTAKASFHGRTLATITATGQPKYQQYFDPLVPGFDYVPYNDIRSLENKVADLDEGNSRVAAIFLEPLQGEGGVRPGDLAYFKRVREICDQNDILLVFDEVQVGVGRTGKLWGYEHLGVEPDIFTSAKGLAGGVPIGAMMCKKFCDVFEPGNHASTFGGNPLACAAGLAVLKTIEGDRLLDNVQARGEQLRSGLAEIKNQYPTLFTEVRGWGLINGLEISAESSLTSVEIVKAAMEQGLLLAPAGPKVLRFVPPLVVTEAEIAQAVEILRQAIATLV
For the molecule B1, the “in vitro activity of recombinant CphB-His (2 μM; degradation of cyanophycin, β-Asp-Arg dipeptide at 2 min by LC-HRMS) with recombinant ArgD-His added in a 1:1 ratio against without ArgD (BSA control)” value was approximately 2 fold.
